Measured values: patent US20090004190A1, “Rage Fusion Proteins And Methods Of Use” (priority 2006, published 2009)

Tests used:
[1] = molecular target: T1, amyloid-beta (Abeta) (Amyloid Beta (1-40)) (Homo sapiens, UniProt P05067); assay: In vitro ligand binding (ELISA) to immobilized amyloid-beta; details: ligand 5 micrograms per well; FIG. 7
T1 construct: Amyloid Beta (1-40) from Biosource; purchased Biosource
Experimental: (§1) For example, the RAGE fusion protein may be used in a binding assay to identify potential RAGE ligands. In one example embodiment of such a binding assay, a known RAGE ligand may coated onto a solid substrate (e.g., Maxisorb plates) at a concentration of about 5 micrograms per well, where each well contains a total volume of about 100 microliters (μL). The plates may be incubated at 4° C. overnight to allow the ligand to absorb. Alternatively, shorter incubation periods at higher temperature (e.g., room temperature) may be used. […] The RAGE fusion protein bound to the immobilized ligand may be detected in a variety of ways. […] The bound complex may be detected by adding the alkaline phosphatase substrate, para-nitrophenylphosphate (PNPP), and measuring conversion of PNPP to para-nitrophenol (PNP) as an increase in absorbance at 405 nm. […] In the absence of ligand (i.e., coating with only BSA) there was no increase in absorbance. […] Binding was detected by the addition of an immunodetection complex containing a monoclonal mouse anti-human IgG1 diluted 1:11,000 to a final assay concentration (FAC) of 21 ng/100 μL, a biotinylated goat anti-mouse IgG diluted 1:500, to a FAC of […], and an avidin-linked alkaline phosphatase. […]

[2] = test system: Fc receptor; assay: Fc receptor activation: TNF-α secretion from THP-1 cells; format: cell-based; details: well precoated with 10 ug/well heat aggregated protein, 24 hours, FIG. 12
Text: Fc stimulation results in TNF-α secretion.

[3] = Pharmacokinetic profile of TTP-4000 after IV injection (plasma ELISA); format: in vivo; details: monkeys, single IV bolus 5 mg/kg, after ligands saturated, FIG. 11
Experimental: Blood samples (approximately 1.0 mL) were collected at pre-dose (i.e., prior to injection of the TTP4000), or at 0.083, 0.25, 0.5, 2, 4, 8, 12, 24, 48, 72, 96, 120, 168, 240, 288, and 336 hours post dose into tubes containing (lithium heparin). Following collection, the tubes were placed on wet ice (maximum 30 minutes) until centrifugation under refrigeration (at 2 to 8° C.) at 1500×g for 15 minutes. Each harvested plasma sample was then stored frozen (−70° C.±10° C.) until assayed for RAGE polypeptide using an ELISA at various time-points following the injection, as described in Example 6.
Initially, 50 uL of the RAGE specific monoclonal antibody 1HB1011 at a concentration of 10 ug/mL in 1×PBS pH 7.3 is coated on plates via overnight incubation. When ready for use, plates are washed three times with 300 uL of 1× Imidazole-Tween wash buffer and blocked with 1% BSA. […] The samples are allowed to incubate at room temperature for one hour. After incubation, the plates are plates are washed three times. A Goat Anti-human IgG11 (Sigma A3312) […] conjugate in 1×PBS with 1% BSA is added and allowed to incubate at room temperature for 1 hour. The plates are washed three times. Color was elucidated with paranitrophenylphosphate.

[4] = molecular target: T2, amphoterin (Ampho) (Homo sapiens, UniProt P09429); assay: In vitro ligand binding (ELISA) to immobilized amphoterin; details: ligand 5 micrograms per well; FIG. 7
T2 sequence (P09429 1-215): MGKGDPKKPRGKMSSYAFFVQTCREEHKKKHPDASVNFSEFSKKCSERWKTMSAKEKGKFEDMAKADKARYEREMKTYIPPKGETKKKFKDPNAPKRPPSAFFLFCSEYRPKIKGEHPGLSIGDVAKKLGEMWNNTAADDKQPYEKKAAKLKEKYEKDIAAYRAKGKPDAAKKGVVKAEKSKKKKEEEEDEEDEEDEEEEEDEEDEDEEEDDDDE
Experimental: as §1

[5] = molecular target: T3, S100b (S100) (Homo sapiens, UniProt P04271); assay: In vitro ligand binding (ELISA) to immobilized S100b; details: ligand 5 micrograms per well; FIG. 7
T3 sequence (P04271 1-92): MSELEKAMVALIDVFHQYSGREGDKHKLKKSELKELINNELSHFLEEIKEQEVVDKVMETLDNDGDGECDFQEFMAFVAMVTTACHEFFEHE
Experimental: as §1

T1 sequence (P05067 672-711): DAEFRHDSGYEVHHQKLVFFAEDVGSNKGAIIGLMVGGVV

B1: TTP-4000: four domain RAGE fusion protein: human RAGE V and C1 domains with interdomain linkers (to residue 251) fused to human IgG1 CH2 and CH3; SEQ ID NO: 34/56 (protein, listed as Homo sapiens)
chain: QNITARIGEPLVLKCKGAPKKPPQRLEWKLNTGRTEAWKVLSPQGGGPWDSVARVLPNGSLFLPAVGIQDEGIFRCQAMNRNGKETKSNYRVRVYQIPGKPEIVDSASELTAGVPNKVGTCVSEGSYPAGTLSWHLDGKPLVPNEKGVSVKEQTRRHPETGLFTLQSELMVTPARGGDPRPTFSCSFSPGLPRHRALRTAPIQPRVWEPVPLEEVQLVVEPEGGAVAPPSVFLFPPKPKDTLMISRTPEVTCVVVDVSHEDPEVKFNWYVDGVEVHNAKTKPREEQYNSTYRVVSVLTVLHQDWLNGKEYKCKVSNKALPAPIEKTISKAKGQPREPQVYTLPPSRDELTKNQVSLTCLVKGFYPSDIAVEWESNGQPENNYKTTPPVLDSDGSFFLYSKLTVDKSRWQQGNVFSCSVMHEALHNHYTQKSLSLSPGK
[1]
  binding to immobilized amyloid-beta (absorbance at 405 nm): specifically interact
[2]
  TNF generated: less than 2 ng/well
[3]
  terminal half-life: greater than 300 hours
[4]
  binding to immobilized amphoterin (absorbance at 405 nm): specifically interact
[5]
  binding to immobilized S100b (absorbance at 405 nm): specifically interact
